In paper PMC4476257 (Molecular pharmaceutics, 2015):
Like-named read-outs stand apart in the source and are kept apart here. Bridge positions count the residues as written; N and C are the ends. Square brackets hold non-standard residues; d marks the D form. Ends that are not written are not given here. Peptide text beside a SMILES is read from it. I, II: the chains in the order shown. * marks the point of attachment. Dolaproine = CO[C@@H]([C@@H]1CCCN1)[C@@H](C)C(=O)O; Dil = CC[C@H](C)[C@H](NC)[C@@H](CC(=O)O)OC; X1 = C[C@@H](N*)[C@@H](O)c1ccccc1; NMeV = CN[C@H](C(=O)O)C(C)C; Mpa = O=C(O)CCS

Tests used:
HeLa cells = assay: Anti-proliferation assay; conditions: 5 µM, physiological pH, 2 h treatment, MTT after 72 h, Figures 3A and 3E
[1] = test system: HeLa and MDA-MB-231 cells; assay: Anti-proliferation assay, statements pooled over both cell lines; format: cell-based, human; conditions: HeLa and MDA-MB-231 (Figures 3E, 3F), 2.5 µM, 2 h treatment, MTT after 72 h
[2] = pH 7.4 to pH 5.0, POPC liposomes, peptide:lipid 1:300, 7 µM, 25 °C
[3] = peptide:lipid 1:300, 7 µM, 25 °C, excitation 295 nm
[4] = test system: HeLa and MDA-MB-231 cells; assay: Cell membrane integrity assay; format: cell-based, human; conditions: HeLa and MDA-MB-231, 10 µM, 2 h, pH 7.4 or pH 5.0; mean, n=4; Figure 4
MDA-MB-231 cells = assay: Anti-proliferation assay; format: cell-based, human; conditions: MDA-MB-231, 1.25 µM, 2 h treatment, MTT after 72 h; Figures 3B and 3D
[5] = toxin derivatives conjugated to pHLIP; cited from earlier work

For `CC[C@H](C)[C@@H]([C@@H](CC(=O)N1CCC[C@H]1[C@H](OC)[C@@H](C)C(=O)N[C@H](C)[C@@H](O)c1ccccc1)OC)N(C)C(=O)[C@@H](NC(=O)[C@@H](NC)C(C)C)C(C)C` [MMAE, monomethyl auristatin E] (H-[NMeV]V[Dil][Dolaproine]-X1), the cytotoxicity (HeLa cells) was “about 70%” and the cytotoxicity [1] was 20–30%.

With “I: GGEQNPIYWARYADWLFTTPLLLLELALLVDADEGTCG-NH2 / II: [Mpa][NMeV]V[Dil][Dolaproine]-X1 (disulfide I:37-II:1) [pHLIP(D25E)-MMAE]” the “pH-dependent secondary structure transition (CD)” value [2] was “transition from an unstructured conformation to an α-helix”, the “Trp fluorescence emission maximum” value ([3]; pH 5.0, POPC liposomes) was 329 nm and the “Trp fluorescence emission maximum” value ([3]; pH 7.4, POPC liposomes) was 347 nm. The “disruption of the plasma membrane (trypan blue uptake)” value [4] was “neither conjugates, nor low pH treatment, caused disruption of the membranes” and the “cell killing at 1.25 µM (percentage as printed)” value (MDA-MB-231 cells) was 49%.

For amanitin, the pK of insertion [5] is given as 5.9.
